Test results as given in US20110059889A1 (SYNTONIX PHARMACEUTICALS, published 2011).
Bridge positions count the residues as written; N and C are the ends. Square brackets hold non-standard residues; d marks the D form. Ends that are not written are not given here. Phe(4-amidino) = N=C(N)c1ccc(C[C@H](N)C(=O)O)cc1; Phe(4-NH2) = Nc1ccc(C[C@H](N)C(=O)O)cc1; His(Me) = mono-methylated histidine; NMeL = CN[C@@H](CC(C)C)C(=O)O; Pen = CC(C)(S)[C@H](N)C(=O)O; hCys = N[C@@H](CCS)C(=O)O; Sar = CNCC(=O)O

B1: Peptide No. 27 (peptide)
peptide: QRFCTGHFGGLYP[hCys]NGP-NH2
modifications: disulfide 4-14; N-terminus assumed
SMILES: CC(C)C[C@@H]1NC(=O)CNC(=O)CNC(=O)[C@H](Cc2ccccc2)NC(=O)[C@H](Cc2c[nH]cn2)NC(=O)CNC(=O)[C@H]([C@@H](C)O)NC(=O)[C@@H](NC(=O)[C@H](Cc2ccccc2)NC(=O)[C@H](CCCNC(=N)N)NC(=O)[C@@H](N)CCC(N)=O)CSSCC[C@@H](C(=O)N[C@@H](CC(N)=O)C(=O)NCC(=O)N2CCC[C@H]2C(N)=O)NC(=O)[C@@H]2CCCN2C(=O)[C@H](Cc2ccc(O)cc2)NC1=O
B2: Peptide No. 28 (peptide)
peptide: QRF[hCys]TGHFGGLYP[hCys]NGP-NH2
modifications: disulfide 4-14; N-terminus assumed
SMILES: CC(C)C[C@@H]1NC(=O)CNC(=O)CNC(=O)[C@H](Cc2ccccc2)NC(=O)[C@H](Cc2c[nH]cn2)NC(=O)CNC(=O)[C@H]([C@@H](C)O)NC(=O)[C@@H](NC(=O)[C@H](Cc2ccccc2)NC(=O)[C@H](CCCNC(=N)N)NC(=O)[C@@H](N)CCC(N)=O)CCSSCC[C@@H](C(=O)N[C@@H](CC(N)=O)C(=O)NCC(=O)N2CCC[C@H]2C(N)=O)NC(=O)[C@@H]2CCCN2C(=O)[C@H](Cc2ccc(O)cc2)NC1=O
B3: Peptide No. 34 (peptide)
peptide: QRF[Pen]TGHFGGLYP[Pen]NGP-NH2
modifications: disulfide 4-14; N-terminus assumed
SMILES: CC(C)C[C@@H]1NC(=O)CNC(=O)CNC(=O)[C@H](Cc2ccccc2)NC(=O)[C@H](Cc2c[nH]cn2)NC(=O)CNC(=O)[C@H]([C@@H](C)O)NC(=O)[C@@H](NC(=O)[C@H](Cc2ccccc2)NC(=O)[C@H](CCCNC(=N)N)NC(=O)[C@@H](N)CCC(N)=O)C(C)(C)SSC(C)(C)[C@@H](C(=O)N[C@@H](CC(N)=O)C(=O)NCC(=O)N2CCC[C@H]2C(N)=O)NC(=O)[C@@H]2CCCN2C(=O)[C@H](Cc2ccc(O)cc2)NC1=O
B4: Peptide No. 241 (peptide)
peptide: RF[Pen]TGHF[dS][Sar][NMeL]YPC-NH2
modifications: disulfide 3-13; N-terminus assumed
SMILES: CC(C)C[C@H]1C(=O)N[C@@H](Cc2ccc(O)cc2)C(=O)N2CCC[C@H]2C(=O)N[C@H](C(N)=O)CSSC(C)(C)[C@H](NC(=O)[C@H](Cc2ccccc2)NC(=O)[C@@H](N)CCCNC(=N)N)C(=O)N[C@@H]([C@@H](C)O)C(=O)NCC(=O)N[C@@H](Cc2c[nH]cn2)C(=O)N[C@@H](Cc2ccccc2)C(=O)N[C@H](CO)C(=O)N(C)CC(=O)N1C
B5: Peptide No. 240 (peptide)
peptide: RF[Pen]TGHF[dT][Sar][NMeL]YPC-NH2
modifications: disulfide 3-13; N-terminus assumed
SMILES: CC(C)C[C@H]1C(=O)N[C@@H](Cc2ccc(O)cc2)C(=O)N2CCC[C@H]2C(=O)N[C@H](C(N)=O)CSSC(C)(C)[C@H](NC(=O)[C@H](Cc2ccccc2)NC(=O)[C@@H](N)CCCNC(=N)N)C(=O)N[C@@H]([C@@H](C)O)C(=O)NCC(=O)N[C@@H](Cc2c[nH]cn2)C(=O)N[C@@H](Cc2ccccc2)C(=O)N[C@H]([C@H](C)O)C(=O)N(C)CC(=O)N1C
B6: Peptide No. 244 (peptide)
peptide: RF[Pen]TGHF[dE][Sar][NMeL]YPC-NH2
modifications: disulfide 3-13; N-terminus assumed
SMILES: CC(C)C[C@H]1C(=O)N[C@@H](Cc2ccc(O)cc2)C(=O)N2CCC[C@H]2C(=O)N[C@H](C(N)=O)CSSC(C)(C)[C@H](NC(=O)[C@H](Cc2ccccc2)NC(=O)[C@@H](N)CCCNC(=N)N)C(=O)N[C@@H]([C@@H](C)O)C(=O)NCC(=O)N[C@@H](Cc2c[nH]cn2)C(=O)N[C@@H](Cc2ccccc2)C(=O)N[C@H](CCC(=O)O)C(=O)N(C)CC(=O)N1C
B7: Peptide No. 243 (peptide)
peptide: RF[Pen]TGHF[dN][Sar][NMeL]YPC-NH2
modifications: disulfide 3-13; N-terminus assumed
SMILES: CC(C)C[C@H]1C(=O)N[C@@H](Cc2ccc(O)cc2)C(=O)N2CCC[C@H]2C(=O)N[C@H](C(N)=O)CSSC(C)(C)[C@H](NC(=O)[C@H](Cc2ccccc2)NC(=O)[C@@H](N)CCCNC(=N)N)C(=O)N[C@@H]([C@@H](C)O)C(=O)NCC(=O)N[C@@H](Cc2c[nH]cn2)C(=O)N[C@@H](Cc2ccccc2)C(=O)N[C@H](CC(N)=O)C(=O)N(C)CC(=O)N1C
B8: Peptide No. 219 (peptide)
peptide: RF[Pen]TGHF[dL][Sar][NMeL]YPC-NH2
modifications: disulfide 3-13; N-terminus assumed
SMILES: CC(C)C[C@H]1NC(=O)[C@H](Cc2ccccc2)NC(=O)[C@H](Cc2c[nH]cn2)NC(=O)CNC(=O)[C@H]([C@@H](C)O)NC(=O)[C@@H](NC(=O)[C@H](Cc2ccccc2)NC(=O)[C@@H](N)CCCNC(=N)N)C(C)(C)SSC[C@@H](C(N)=O)NC(=O)[C@@H]2CCCN2C(=O)[C@H](Cc2ccc(O)cc2)NC(=O)[C@H](CC(C)C)N(C)C(=O)CN(C)C1=O
B9: Peptide No. 257 (peptide)
peptide: RF[Pen]TG[Phe(4-amidino)]FG[Sar][NMeL]YPC-NH2
modifications: disulfide 3-13; N-terminus assumed
SMILES: CC(C)C[C@H]1C(=O)N[C@@H](Cc2ccc(O)cc2)C(=O)N2CCC[C@H]2C(=O)N[C@H](C(N)=O)CSSC(C)(C)[C@H](NC(=O)[C@H](Cc2ccccc2)NC(=O)[C@@H](N)CCCNC(=N)N)C(=O)N[C@@H]([C@@H](C)O)C(=O)NCC(=O)N[C@@H](Cc2ccc(C(=N)N)cc2)C(=O)N[C@@H](Cc2ccccc2)C(=O)NCC(=O)N(C)CC(=O)N1C
B10: Peptide No. 256 (peptide)
peptide: RF[Pen]TGRFG[Sar][NMeL]YPC-NH2
modifications: disulfide 3-13; N-terminus assumed
SMILES: CC(C)C[C@H]1C(=O)N[C@@H](Cc2ccc(O)cc2)C(=O)N2CCC[C@H]2C(=O)N[C@H](C(N)=O)CSSC(C)(C)[C@H](NC(=O)[C@H](Cc2ccccc2)NC(=O)[C@@H](N)CCCNC(=N)N)C(=O)N[C@@H]([C@@H](C)O)C(=O)NCC(=O)N[C@@H](CCCNC(=N)N)C(=O)N[C@@H](Cc2ccccc2)C(=O)NCC(=O)N(C)CC(=O)N1C
B11: Peptide No. 255 (peptide)
peptide: RF[Pen]TGKFG[Sar][NMeL]YPC-NH2
modifications: disulfide 3-13; N-terminus assumed
SMILES: CC(C)C[C@H]1C(=O)N[C@@H](Cc2ccc(O)cc2)C(=O)N2CCC[C@H]2C(=O)N[C@H](C(N)=O)CSSC(C)(C)[C@H](NC(=O)[C@H](Cc2ccccc2)NC(=O)[C@@H](N)CCCNC(=N)N)C(=O)N[C@@H]([C@@H](C)O)C(=O)NCC(=O)N[C@@H](CCCCN)C(=O)N[C@@H](Cc2ccccc2)C(=O)NCC(=O)N(C)CC(=O)N1C
B12: Peptide No. 258 (peptide)
peptide: RF[Pen]TG[Phe(4-NH2)]FG[Sar][NMeL]YPC-NH2
modifications: disulfide 3-13; N-terminus assumed
SMILES: CC(C)C[C@H]1C(=O)N[C@@H](Cc2ccc(O)cc2)C(=O)N2CCC[C@H]2C(=O)N[C@H](C(N)=O)CSSC(C)(C)[C@H](NC(=O)[C@H](Cc2ccccc2)NC(=O)[C@@H](N)CCCNC(=N)N)C(=O)N[C@@H]([C@@H](C)O)C(=O)NCC(=O)N[C@@H](Cc2ccc(N)cc2)C(=O)N[C@@H](Cc2ccccc2)C(=O)NCC(=O)N(C)CC(=O)N1C
B13: Peptide No. 218 (peptide)
peptide: RF[Pen]TGHF[dV][Sar][NMeL]YPC-NH2
modifications: disulfide 3-13; N-terminus assumed
SMILES: CC(C)C[C@H]1C(=O)N[C@@H](Cc2ccc(O)cc2)C(=O)N2CCC[C@H]2C(=O)N[C@H](C(N)=O)CSSC(C)(C)[C@H](NC(=O)[C@H](Cc2ccccc2)NC(=O)[C@@H](N)CCCNC(=N)N)C(=O)N[C@@H]([C@@H](C)O)C(=O)NCC(=O)N[C@@H](Cc2c[nH]cn2)C(=O)N[C@@H](Cc2ccccc2)C(=O)N[C@H](C(C)C)C(=O)N(C)CC(=O)N1C

Target: T1, soluble human FcRn (shFcRn) (human, UniProt P55899 24-297; P61769 21-119)
T1 construct: Biotinylated for the ELISA, amine-coupled to a CM5 chip for SPR; also called biotinylated shFcRn
T1 sequence (P55899 24-297 limits assumed, chain 1 of 2): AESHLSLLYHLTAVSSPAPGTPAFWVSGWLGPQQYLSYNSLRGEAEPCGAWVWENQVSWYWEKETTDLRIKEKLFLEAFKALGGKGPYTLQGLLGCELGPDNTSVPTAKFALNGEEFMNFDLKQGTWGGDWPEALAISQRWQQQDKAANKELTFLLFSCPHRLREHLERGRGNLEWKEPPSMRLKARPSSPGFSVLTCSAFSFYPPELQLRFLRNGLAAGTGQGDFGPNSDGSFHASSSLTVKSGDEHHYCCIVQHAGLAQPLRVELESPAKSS
T1 sequence (P61769 21-119 limits assumed, chain 2 of 2): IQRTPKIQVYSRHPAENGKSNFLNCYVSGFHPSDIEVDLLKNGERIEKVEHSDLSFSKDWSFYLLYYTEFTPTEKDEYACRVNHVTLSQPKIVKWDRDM
Test: SPR pH 6
Protocol: (§1) The following steps were performed to cross-link soluble human or cynomolgus FcRn to the dextran surface of a CM5 sensor chip (Biacore AB, Uppsala, Sweden) by an amine coupling reaction involving 1-ethyl-(3-dimethylaminopropyl)-carbodiimide hydrochloride (EDC) (Biacore AB, Uppsala, Sweden) and N-hydroxysuccinimide (NHS) (Biacore AB, Uppsala, Sweden) as recommended by Biacore (BIAapplications Handbook, version AB, section 4.2, Biacore AB, Uppsala, Sweden). […] Residual sites on the FcRn flow cell were blocked with 1 M ethanolamine hydrochloride pH 8.5 (Biacore AB, Uppsala, Sweden). A control flow cell was blocked with ethanolamine for reference subtraction. For analysis of the monomeric peptides, FcRn was coated to a final density of 4000-5000 response units (RU). For analysis of the peptide dimers, FcRn was coated to a density of 2000-2500 RU. All SPR measurements were performed using a BIACORE 3000 Instrument (Biacore AB Uppsala, Sweden). For measurements done at either pH 6 or pH 7.4, experiments were performed in 50 mM phosphate, 100 mM sodium chloride, 0.01% surfactant P20 (Biacore AB, Uppsala, Sweden).
(§2) Ten, 2-fold dilutions of the peptide were injected over the FcRn-CM5 chip at a rate of 20 μl/min for 2 min. The peptide was dissociated from the chip for 2.5 minutes with buffer. Any remaining peptide was removed from the chip with a 30 second injection of HBS-P buffer (Biacore AB, Uppsala, Sweden) at a rate of 30 μl/min. Sensorgrams were generated and analyzed using BiaEval software version 3.1 (Biacore AB, Uppsala, Sweden). The equilibrium RU observed for each injection was plotted against concentration. The equilibrium KD values were derived by analysis of the plots using the steady state affinity model included in the BiaEval software.

B1 and B2 are within 1.5-fold of each other in Kd: 3.9 µM for the first, 3.8 µM for the second.

Binder B3 has a Kd of 0.37 µM.

Target: T1, soluble human FcRn (shFcRn)
Test: SPR pH 6
Remark: another data set of the same source
Protocol: as §1, §2

Going from B4 to B5, the Kd rises from 1.1 µM to 4.8 µM (4.4-fold).

Going from B6 to B7, the Kd rises from 0.58 µM to 2.1 µM (3.6-fold).

In the case of B8, the Kd is reported as 0.47 µM.

Target: T1, soluble human FcRn (shFcRn)
Test: SPR pH 6
Remark: another data set of the same source
Protocol: as §1, §2

First: B9
Second: B10
The Kd of the first is 6.8-fold lower: 0.074 µM for the first, 0.5 µM for the second.

First: B11
Second: RF[Pen]TG[His(Me)2]FGGLYPC-NH2 (disulfide 3-13) [Peptide No. 260]
The Kd of the first is 6.8-fold higher: 1.3 µM for the first, 0.19 µM for the second. The second binds more tightly here.

RF[Pen]TG[His(Me)]FGGLYPC-NH2 (disulfide 3-13) [Peptide No. 259] was tested, and the Kd was 0.14 µM.

Target: T1, soluble human FcRn (shFcRn)
Test: SPR pH 7.4
Protocol: as §1, §2

First: B9
Second: B10
The Kd of the first is 6.8-fold lower: 0.073 µM for the first, 0.5 µM for the second. The first binds more tightly here.

B12 and B11 are the same in Kd: 1.1 µM for the first, 1.1 µM for the second.

RF[Pen]TG[His(Me)2]FGGLYPC-NH2 (disulfide 3-13) [Peptide No. 260] and RF[Pen]TG[His(Me)]FGGLYPC-NH2 (disulfide 3-13) [Peptide No. 259] are within 1.5-fold of each other in Kd: 0.46 µM for the first, 0.38 µM for the second.

Target: T1, soluble human FcRn (shFcRn)
Test: IgG competition ELISA
Protocol: (§3) The wells were coated with 100 μl/well of 1 μg/ml biotinylated-shFcRn in Buffer A. The plate was sealed and incubated at 37° C. for 2 hours. Afterwards, the plate was washed with 200 μl/well of Buffer B (Buffer B: 100 mM MES pH 6, 150 mM NaCl, 0.5% BSA IgG-free (Jackson ImmunoResearch, West Grove, Pa.), 0.05% Tween-20). […] To allow for mixing, the plate was rocked for 2 minutes, sealed and incubated at 37° C. for 2 hours. […] The plate was covered, incubated for 30 minutes at room temperature and washed 4 times with 200 μl/well of ice-cold buffer B. SureBlue TMB substrate solution (100 μl/well, KPL, Gaithersburg, Md.) was added and the plate was allowed to incubate at room temperature until color developed, which took 5 to 10 minutes. Once color developed, 100 μl/well of TMB stop solution (KPL, Gaithersburg, Md.) was added and the absorbance was measured at 450 nm. The data was plotted as absorbance vs. peptide concentration to derive the inhibitory concentration 50% (IC₅₀) values.

B1 and B2 are within 1.5-fold of each other in IC50: 21 µM for the first, 20 µM for the second.

B3 was tested, and the IC50 was 2 µM.

Target: T1, soluble human FcRn (shFcRn)
Test: IgG competition ELISA
Remark: another data set of the same source
Protocol: as §3

Going from B13 to B4, the IC50 falls from > 50 µM to 23 µM.

First: B5
Second: B6
The IC50 of the first is 11-fold higher: 71 µM for the first, 6.4 µM for the second. The second is the more potent here.

First: B7
Second: B8
The IC50 of the first is 7.2-fold higher: 29 µM for the first, 4 µM for the second.

Target: T1, soluble human FcRn (shFcRn)
Test: IgG competition ELISA
Remark: another data set of the same source
Protocol: as §3

B10 and B12 are within 1.5-fold of each other in IC50: 5.5 µM for the first, 4.6 µM for the second.

Compared with B11, RF[Pen]TG[His(Me)2]FGGLYPC-NH2 (disulfide 3-13) [Peptide No. 260] is 9.1-fold lower in IC50: 40 µM for the first, 4.4 µM for the second.

Work on RF[Pen]TG[His(Me)]FGGLYPC-NH2 (disulfide 3-13) [Peptide No. 259] yielded an IC50 of 2.9 µM.
